The text below walks through data of patent US20240000957A1 (published 2024).

The labels stand for the following.
B1: BCY6105 (peptide)
peptide: AXDCPLVNPLCLHPGWTC
modifications: not fully specified; as BCY6014 (N-terminal (β-Ala)-Sar10; HArg; TATA scaffold on the 3 Cys) + MMAE-Ala-Ala-Asn
notes: Bicycle drug conjugate (BDC)
B2: BCY6107 (peptide)
peptide: AXDCPLVNPLCLHPGWTC
modifications: not fully specified; as BCY6014 (N-terminal (β-Ala)-Sar10; HArg; TATA scaffold on the 3 Cys) + MMAE-Glu-Pro-Cit-Gly-hPhe-Tyr-Leu-
notes: Bicycle drug conjugate (BDC)
B3: BCY6106 (peptide)
peptide: AXDCPLVNPLCLHPGWTC
modifications: not fully specified; as BCY6014 (N-terminal (β-Ala)-Sar10; HArg; TATA scaffold on the 3 Cys) + MMAE-D-Ala-Phe-Lys-
notes: Bicycle drug conjugate (BDC)
B4: BCY6039 (peptide)
peptide: AXDCPLVNPLCLHPGWTC
modifications: not fully specified; as BCY6014 (N-terminal (β-Ala)-Sar10; HArg; TATA scaffold on the 3 Cys) + DM1-(Me)-SS-(Me)-
notes: Bicycle drug conjugate (BDC)
B5: Compound 30 (peptide)
peptide: ACQPSNHCAFMNYCA
modifications: linker 2-8-14 via TATA
B6: Compound 29 (peptide)
peptide: ACYVGKECAYMNVCA
modifications: linker 2-8-14 via TATA; not fully specified (C-terminus)
B7: Compound 31 (peptide)
peptide: ACSPTPACAVQNLCA
modifications: linker 2-8-14 via TATA; not fully specified (C-terminus)
B8: BCY6061 (peptide)
peptide: AXDCPLVNPLCLHPGWTC
modifications: not fully specified; as BCY6014 (N-terminal (β-Ala)-Sar10; HArg; TATA scaffold on the 3 Cys) + ValLys-MMAE
notes: Bicycle drug conjugate (BDC)
B9: BCY6032 (peptide)
peptide: AXDCPLVNPLCLHPGWTC
modifications: not fully specified; as BCY6014 (N-terminal (β-Ala)-Sar10; HArg; TATA scaffold on the 3 Cys) + DM1-SS-(Me)-
notes: Bicycle drug conjugate (BDC)
B10: BCY6031 (peptide)
peptide: AXDCPLVNPLCLHPGWTC
modifications: not fully specified; as BCY6014 (N-terminal (β-Ala)-Sar10; HArg; TATA scaffold on the 3 Cys) + DM1-SS-
notes: Bicycle drug conjugate (BDC)
B11: BCY6136 (peptide)
peptide: [βAla][Sar][Sar][Sar][Sar][Sar][Sar][Sar][Sar][Sar][Sar]A[hArg]DC[Hyp]LVNPLCLHP[dD]W[hArg]C
modifications: linker 15-22-29 via TATA; not fully specified (N-terminus, C-terminus); also: ValCit-MMAE conjugate, site not given here
notes: Bicycle drug conjugate (BDC); also called BT5528
B12: BCY6135 (peptide)
peptide: [βAla][Sar][Sar][Sar][Sar][Sar][Sar][Sar][Sar][Sar][Sar]A[hArg]DC[Hyp]LVNPLCLHP[dD]W[hArg]C
modifications: linker 15-22-29 via TATA; not fully specified (N-terminus, C-terminus); numbers in words are those of the source; also: DM1-SS- conjugate, site not given here
notes: Bicycle drug conjugate (BDC)
B13: BCY6174 (peptide)
peptide: [βAla][Sar][Sar][Sar][Sar][Sar][Sar][Sar][Sar][Sar][Sar]A[hArg]DC[Hyp]LVNPLCLHP[dD]W[hArg]C
modifications: linker 15-22-29 via TATA; not fully specified (N-terminus, C-terminus); also: ValLys-MMAE conjugate, site not given here
notes: Bicycle drug conjugate (BDC)
B14: BCY6173 (peptide)
peptide: [βAla][Sar][Sar][Sar][Sar][Sar][Sar][Sar][Sar][Sar][Sar]A[hArg]DC[Hyp]LVNPLCLHP[dD]W[hArg]C
modifications: linker 15-22-29 via TATA; not fully specified (N-terminus, C-terminus); numbers in words are those of the source; also: DM1-SS(SO3H)- conjugate, site not given here
notes: Bicycle drug conjugate (BDC)
B15: Compound 32 (peptide)
peptide: ACTSCWAYPDSFCA
modifications: linker 2-5-13 via TATA; not fully specified (C-terminus)

*1 amine or outer side, *2 acyl side, *3 side chain or, on linkers, in order; H or OH if unused. Bridges are numbered along the chain shown (N, C = ends). Where no end group is shown, it is not given here. [ ]: non-standard residue; d: D form. TATA = O=C(CC[*:1])N1CN(C(=O)CC[*:2])CN(C(=O)CC[*:3])C1; Hyp = O=C(O)[C@@H]1C[C@@H](O)CN1; hArg = N=C(N)NCCCC[C@H](N)C(=O)O; βAla = NCCC(=O)O; Sar = CNCC(=O)O

T3 sequence (Q03145 26-538): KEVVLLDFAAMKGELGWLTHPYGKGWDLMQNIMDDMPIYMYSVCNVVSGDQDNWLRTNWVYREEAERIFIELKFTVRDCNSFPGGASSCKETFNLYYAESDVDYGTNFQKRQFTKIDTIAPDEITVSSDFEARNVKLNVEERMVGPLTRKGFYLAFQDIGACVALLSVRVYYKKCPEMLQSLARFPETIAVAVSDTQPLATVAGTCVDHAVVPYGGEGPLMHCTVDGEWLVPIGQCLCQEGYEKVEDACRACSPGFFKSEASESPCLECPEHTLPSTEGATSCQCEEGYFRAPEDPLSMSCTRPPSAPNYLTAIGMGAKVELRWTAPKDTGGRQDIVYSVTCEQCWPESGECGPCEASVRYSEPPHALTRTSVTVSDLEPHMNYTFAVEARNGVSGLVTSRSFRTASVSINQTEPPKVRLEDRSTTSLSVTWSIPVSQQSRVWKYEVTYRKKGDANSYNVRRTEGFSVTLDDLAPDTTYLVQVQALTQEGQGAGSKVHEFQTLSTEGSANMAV

The target in the first test is T1, Human EphA2 (Ecto), C-terminal polyHis (Human, UniProt P29317 24-537).
T1 construct: extracellular domain; R&D systems 3035-A2 or in-house
T1 sequence (P29317 24-537): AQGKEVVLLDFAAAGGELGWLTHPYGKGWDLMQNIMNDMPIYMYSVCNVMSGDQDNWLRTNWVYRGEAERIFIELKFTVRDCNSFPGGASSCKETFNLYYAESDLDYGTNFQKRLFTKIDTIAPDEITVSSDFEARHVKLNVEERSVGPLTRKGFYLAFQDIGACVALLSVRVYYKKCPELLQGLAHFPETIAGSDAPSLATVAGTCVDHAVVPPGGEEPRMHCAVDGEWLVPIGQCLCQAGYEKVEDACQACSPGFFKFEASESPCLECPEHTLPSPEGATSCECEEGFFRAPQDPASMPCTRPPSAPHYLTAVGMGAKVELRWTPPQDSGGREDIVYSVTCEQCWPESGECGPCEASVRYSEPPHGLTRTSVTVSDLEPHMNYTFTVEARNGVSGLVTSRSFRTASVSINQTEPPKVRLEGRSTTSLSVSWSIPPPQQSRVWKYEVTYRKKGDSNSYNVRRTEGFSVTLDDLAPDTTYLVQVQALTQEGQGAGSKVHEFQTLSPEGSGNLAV
The test is described as follows: FP competition vs Reference Compound C (Study 2).
By Ki is commonly meant the equilibrium dissociation constant of an inhibitor or competing ligand from its target. Turning to B1, the affinity, expressed as Ki, was 8.86 nM. B2 yielded a Ki of 19.2 nM. Regarding B3, the Ki was 12.9 nM. Molecule B4 displayed a Ki of 9.4 nM. The Ki values of the last two molecules are within 1.5-fold of each other.

The target of a further test is T1, Human EphA2 (Ecto), C-terminal polyHis. The test is described as follows: FP competition vs Reference Compound B.
The molecule B5 gave a Ki of 187 nM. Same read-out and setting: then B6, with 107 nM; and B7, with 177 nM.

The target is the same in the next test. The test is described as follows: FP competition vs Reference Compound C (Study 2). This is another data set of the same source.
In turn, B8 yielded a Ki of 12 nM. The same measure, in the same setting: the value for B9 was 11.4 nM; that for B10 was 12.5 nM.

For another test, the target named is T2, Rat EphA2 (ligand binding), C-terminal polyHis (Rat).
T2 construct: In-house
The test is described as follows: FP competition vs Reference Compound C (Study 2).
In the case of B8, the Ki came out at 14.2 nM. As for B11, the Ki came to 3.2 nM. Against the preceding molecule, the Ki is about 4.4-fold lower. B12 yielded a Ki of 2.9 nM. Still for that read-out and setting: then B13, with 3 nM; and B14, with 2.5 nM. As for B10, the Ki was 20 nM.

Another test concerns the target T3, Mouse EphA2 (Ecto) (Mouse, UniProt Q03145 26-538).
T3 construct: extracellular domain; Fluorescence polarisation assays; not shown: Fc fusion (R&D Systems 639-A2) or C-terminal polyHis (Sino Biological 50586-M08H)
The test is described as follows: FP competition vs Reference Compound C (Study 2).
Turning to B8, the Ki was 32.3 nM. Molecule B9 yielded a Ki of 35.9 nM. Still for that read-out and setting: then B10, with 35.1 nM.

For another test, the target named is T1, Human EphA2 (Ecto), C-terminal polyHis. The test is described as follows: FP competition vs Reference Compound C.
B15 returned a Ki of 232 nM. In other words, the sub-micromolar range.

In turn, B6 returned a Ki of 210 nM. In turn, B7 returned a Ki of 223 nM.

A further test shares this target. The test is described as follows: FP competition vs Reference Compound A.
With B5, affinity was put at a Ki of 137 nM.

As to B15, the Ki worked out at 151 nM.

Molecule B6 returned a Ki of 87.7 nM.

Another test shares this target. The test is described as follows: FP competition vs Reference Compound C. The source holds these as a separate data set.
Take B9: the Ki came to 11.4 nM.

Take B10: the Ki came out at 12.6 nM.

A further test concerns the target T3, Mouse EphA2 (Ecto). The test is described as follows: FP competition vs Reference Compound C.
The molecule B9 displayed a Ki of 35.9 nM.

B10 showed a Ki of 34.7 nM.
